Results: patent US20230057847A1, “GLP2 RECEPTOR AGONISTS AND METHODS OF USE” (The Scripps Research Institute, priority 2019, published 2023)
Bridges are numbered along the chain shown (N, C = ends). Where no end group is shown, it is not given here. [ ]: non-standard residue; d: D form. Nva = CCC[C@H](N)C(=O)O; L5A = not defined here

Tests used:
[1] = Pharmacokinetics of peptides in mice (plasma levels by GLP-2R cell based reporter assay); settings: mouse, in vivo
[2] = tested on: mouse model of environmental enteric dysfunction (EED); assay: Weaning undernutrition mouse model of environmental enteric dysfunction (EED); type: in vivo, mice; settings: animals weaned to CD and to RBD diet, vs untreated
Method: A weaning undernutrition model was used to assess the ability of GLP2-2G-10Nle-1K-EX4-K5 to treat environmental enteric dysfunction (EED). All dams were placed on an isocaloric Northeast Brazil (Regional Basic Diet—RBD), which was moderately deficient in protein, fat and minerals when their pups were 10 days old. At weaning (3 weeks of age), pups were placed on either a standard control diet (CD) or continued on RBD. At 4 weeks of age, weanlings were given drug or placebo (0.1 mg/kg formulated in PBS (vehicle)) once a day subcutaneously for 2-3 weeks. Bodyweight and food consumption were measured twice weekly. Stool was collected at weaning, 6 weeks of age, and 8 weeks of age for calorimetry and microbiome. Oral FITC-dextran was used as a measurement of barrier function. At 6 weeks of age, mice were euthanized, and jejunal tissue was collected for morphology, immunohistochemistry, and for chamber analysis of transmucosal resistance and permeability.

mouse GLP2R (mouse) = mouse GLP2R (mouse) (UniProt Q5IXF8); assay: cell-based or functional assay
Sequence of mouse GLP2R (mouse) (Q5IXF8 whole entry): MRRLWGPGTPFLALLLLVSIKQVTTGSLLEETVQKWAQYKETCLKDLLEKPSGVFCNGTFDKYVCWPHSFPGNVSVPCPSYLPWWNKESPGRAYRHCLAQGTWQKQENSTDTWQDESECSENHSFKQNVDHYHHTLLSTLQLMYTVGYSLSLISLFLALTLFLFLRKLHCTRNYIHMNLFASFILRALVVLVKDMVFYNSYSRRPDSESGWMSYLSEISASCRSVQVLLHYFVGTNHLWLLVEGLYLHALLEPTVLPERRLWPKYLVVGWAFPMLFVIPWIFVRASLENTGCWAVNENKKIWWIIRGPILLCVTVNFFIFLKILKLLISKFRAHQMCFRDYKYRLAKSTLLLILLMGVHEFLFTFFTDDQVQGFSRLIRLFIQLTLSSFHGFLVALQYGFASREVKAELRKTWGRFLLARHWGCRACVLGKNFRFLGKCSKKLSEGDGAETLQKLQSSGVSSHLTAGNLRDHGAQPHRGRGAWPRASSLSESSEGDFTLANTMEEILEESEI

GIPR = assay: cell-based or functional assay
GCGR = assay: cell-based or functional assay
GLP-1R = assay: cell-based or functional assay
[3] = target: cyno monkey GLP2R (cyno monkey) (UniProt G1E7B0); assay: cell-based or functional assay
human GLP-2R = target: T1, human GLP-2R (human, UniProt O95838 1-553); assay: cell-based or functional assay
T1 sequence (looked up): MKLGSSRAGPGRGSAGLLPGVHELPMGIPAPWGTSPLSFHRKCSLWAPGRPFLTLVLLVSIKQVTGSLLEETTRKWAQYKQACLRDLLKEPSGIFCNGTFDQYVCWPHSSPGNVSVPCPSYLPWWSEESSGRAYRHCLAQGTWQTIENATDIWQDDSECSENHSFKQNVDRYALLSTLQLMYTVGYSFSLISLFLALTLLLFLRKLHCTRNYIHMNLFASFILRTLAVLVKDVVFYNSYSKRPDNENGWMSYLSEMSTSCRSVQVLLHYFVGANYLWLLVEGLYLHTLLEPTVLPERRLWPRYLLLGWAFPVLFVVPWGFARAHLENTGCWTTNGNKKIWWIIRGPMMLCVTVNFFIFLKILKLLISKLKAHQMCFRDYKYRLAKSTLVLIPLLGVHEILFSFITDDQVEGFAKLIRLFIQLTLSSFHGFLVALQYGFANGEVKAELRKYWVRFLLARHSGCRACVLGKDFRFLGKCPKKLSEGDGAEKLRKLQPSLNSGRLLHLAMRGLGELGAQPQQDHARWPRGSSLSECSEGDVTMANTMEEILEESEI

[4] = target: 168 GPCR targets (gpcrMAX Panel by DiscoverRx); assay: cell-based or functional assay

CC[C@H](C)[C@@H]1NC(=O)[C@H](Cc2ccccc2)NC(=O)[C@H](CC(=O)O)NC(=O)[C@H](CCCNC(=N)N)NC(=O)[C@H](C)NC(=O)[C@H](C)NC(=O)[C@@H](NC(=O)[C@H](CC(N)=O)NC(=O)[C@H](CC(=O)O)NC(=O)[C@H](CC(C)C)NC(=O)[C@@H](NC(=O)[C@@H](NC(=O)[C@H](CC(N)=O)NC(=O)[C@H](CCSC)NC(=O)[C@H](CCC(=O)O)NC(=O)[C@H](CC(=O)O)NC(=O)[C@H](CO)NC(=O)[C@H](Cc2ccccc2)NC(=O)[C@H](CO)NC(=O)CNC(=O)[C@H](CC(=O)O)NC(=O)CNC(=O)[C@@H](N)Cc2c[nH]cn2)[C@@H](C)O)[C@@H](C)CC)CCCCNC(=O)CN(C(=O)CCNC(=O)CCOCCOCCNC(=O)CCOCCOCCNC(=O)CC[C@H](NC(=O)CCCCCCCCCCCCCCCCC(=O)O)C(=O)O)CC(=O)NCCCC[C@@H](C(=O)N[C@@H](Cc2c[nH]c3ccccc23)C(=O)N[C@@H](CC(C)C)C(=O)N[C@H](C(=O)N[C@@H](CCC(N)=O)C(=O)N[C@H](C(=O)N[C@@H](CCCCN)C(=O)N[C@H](C(=O)N[C@H](C(=O)N[C@@H](CC(=O)O)C(=O)N2CCC[C@H]2C(=O)N[C@@H](CO)C(=O)N[C@@H](CO)C(=O)NCC(=O)N[C@@H](C)C(=O)N2CCC[C@H]2C(=O)N2CCC[C@H]2C(=O)N2CCC[C@H]2C(=O)N[C@@H](CO)C(N)=O)[C@@H](C)O)[C@@H](C)CC)[C@@H](C)O)[C@@H](C)CC)NC1=O [Conjugate 17]
half-life ([1]; 10 nmol/kg, read-out: Mouse T½/h (converted)): 8.53 ± 0.044 h | clearance ([1]; CD1 female mice, 10 nmol/kg iv or sc, read-out: Mouse CL/(mL/h/kg) (converted)): 14.4 mL/h/kg

CC[C@H](C)[C@H](NC(=O)[C@H](Cc1ccccc1)NC(=O)[C@H](CC(=O)O)NC(=O)[C@H](CCCNC(=N)N)NC(=O)[C@H](C)NC(=O)[C@H](C)NC(=O)[C@H](CC(C)C)NC(=O)[C@H](CC(N)=O)NC(=O)[C@H](CC(=O)O)NC(=O)[C@H](CC(C)C)NC(=O)[C@@H](NC(=O)[C@@H](NC(=O)[C@H](CC(N)=O)NC(=O)[C@H](CCSC)NC(=O)[C@H](CCC(=O)O)NC(=O)[C@H](CC(=O)O)NC(=O)[C@H](CO)NC(=O)[C@H](Cc1ccccc1)NC(=O)[C@H](CO)NC(=O)CNC(=O)[C@H](CC(=O)O)NC(=O)[C@H](C)NC(=O)[C@@H](N)Cc1c[nH]cn1)[C@@H](C)O)[C@@H](C)CC)C(=O)N[C@@H](CC(N)=O)C(=O)N[C@@H](Cc1c[nH]c2ccccc12)C(=O)N[C@@H](CC(C)C)C(=O)N[C@H](C(=O)N[C@@H](CCC(N)=O)C(=O)N[C@H](C(=O)N[C@@H](CCCCN)C(=O)N[C@H](C(=O)N[C@H](C(=O)N[C@@H](CC(=O)O)C(=O)O)[C@@H](C)O)[C@@H](C)CC)[C@@H](C)O)[C@@H](C)CC [GLP-2, reference compound]
length of the small intestine [2]: significant increase

Apraglutide (peptide)
IC50 [nM] (665/615 ratio, free cAMP) (mouse GLP2R (mouse)): 0.04 nM

GIP (ligand)
IC50 [nM] (665/615 ratio, free cAMP) (GIPR): 0.02 nM

GLP-2 (ligand)
IC50 [nM] (665/615 ratio, free cAMP) (GCGR): > 500 nM | IC50 [nM] (665/615 ratio, free cAMP) (GIPR): > 500 nM | IC50 [nM] (665/615 ratio, free cAMP) (GLP-1R): > 500 nM

Teduglutide (peptide)
EC50 [nM] (ratio of 665 to 615) [3]: 0.009 nM | IC50 [nM] (665/615 ratio, free cAMP) (mouse GLP2R (mouse)): 0.07 nM

HGDGSFSDE[Nva]NTILDNCAARDFICWLIQTKITDPSSGAPPPS (linker 17-24 via L5A; reading uncertain) [Conjugate 6: GLP2-2G-10Nva-1-EX4 (SEQ ID NO. 6) with staple L5A at positions 17, 24]
GLP-2R - cAMP 0% FBS/nM (EC50, CRE-luciferase reporter) (human GLP-2R): 5.74 nM

HGDGSFSDEMNTILDNCAARDFICWLIQTKITDPSSGAPPPS (linker 17-24 via L5A; not fully specified; ends not checked) [Conjugate 1: GLP2-2G-1-EX4 (SEQ ID NO. 1) with staple L5A at positions 17, 24]
PathHunter beta-arrestin enzyme fragment complementation, agonist mode, % activity [4]: < 30 % activity | PathHunter beta-arrestin enzyme fragment complementation, antagonist mode, % inhibition [4]: < 35 % inhibition

HGDGSFSDEVNTILDNCAARDFICWLIQTKITDPSSGAPPPS (linker 17-24 via L5A; reading uncertain) [Conjugate 7: GLP2-2G-10V-1-EX4 (SEQ ID NO. 7) with staple L5A at positions 17, 24]
GLP-2R - cAMP 0% FBS/nM (EC50, CRE-luciferase reporter) (human GLP-2R): 1.45 nM

B1: Conjugate 11: GLP2-2G-10Nle-1K-EX4 (SEQ ID NO. 10) with staple K5 at positions 17, 24 (peptide)
peptide: HGDGSFSDELNTILDNKAARDFIKWLIQTKITDPSSGAPPPS
modifications: not fully specified; here or on the partner: Nle at 10; staple K5 (lactam) attached at positions 17, 24 (lysines)
PathHunter beta-arrestin enzyme fragment complementation, agonist mode, % activity [4]: < 30 % activity | PathHunter beta-arrestin enzyme fragment complementation, antagonist mode, % inhibition [4]: < 35 % inhibition
